For one series, the target named is T1, Msn1 (Saccharomyces cerevisiae) (UniProt P22148).
T1 sequence: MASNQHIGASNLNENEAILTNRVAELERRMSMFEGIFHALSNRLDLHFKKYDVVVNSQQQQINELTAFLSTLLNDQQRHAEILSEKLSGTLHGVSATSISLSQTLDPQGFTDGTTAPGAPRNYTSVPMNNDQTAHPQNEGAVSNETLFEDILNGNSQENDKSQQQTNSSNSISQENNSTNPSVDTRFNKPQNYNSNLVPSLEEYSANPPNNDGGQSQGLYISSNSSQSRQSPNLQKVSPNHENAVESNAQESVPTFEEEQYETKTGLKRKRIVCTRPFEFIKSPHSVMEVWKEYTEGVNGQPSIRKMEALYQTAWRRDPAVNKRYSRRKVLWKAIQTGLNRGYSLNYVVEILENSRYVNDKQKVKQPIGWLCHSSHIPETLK
The note with it: 200 nM.
For “AAATGTCC (double strand) [8-mer AAATGTCC]”, the binding signal (PBM E-score (-0.5 to 0.5)) came out at 0.498.
Same read-out and setting: the result for “AATGTCCA (double strand) [8-mer AATGTCCA]” reads 0.493; that for “AATGTCCC (double strand) [8-mer AATGTCCC]”, 0.496.
The same measure, in the same setting: the result for “AATGTCCT (double strand) [8-mer AATGTCCT]” reads 0.496; that for “AGGACAAA (double strand) [8-mer AGGACAAA]”, 0.498.
Same read-out and setting: as for “AGGACATA (double strand) [8-mer AGGACATA]”, the figure is 0.494; as for “ATATGTCC (double strand) [8-mer ATATGTCC]”, 0.496; as for “ATGTCCTA (double strand) [8-mer ATGTCCTA]”, 0.497.
As for “ATTTGTCC (double strand) [8-mer ATTTGTCC]”, the binding signal (PBM E-score (-0.5 to 0.5)) was 0.498.
Same read-out and setting: the result for “GAATGTCC (double strand) [8-mer GAATGTCC]” reads 0.494; that for “GGACAAAA (double strand) [8-mer GGACAAAA]”, 0.494.
Consider “GGACAAAC (double strand) [8-mer GGACAAAC]”, for which the binding signal (PBM E-score (-0.5 to 0.5)) was found to be 0.491.
Take “GGGACAAA (double strand) [8-mer GGGACAAA]”: the binding signal (PBM E-score (-0.5 to 0.5)) worked out at 0.496.
The same measure, in the same setting: the result for “TGGACAAA (double strand) [8-mer TGGACAAA]” reads 0.493.

The target of another series is T2, Pdr3 (Saccharomyces cerevisiae) (UniProt P33200).
T2 sequence: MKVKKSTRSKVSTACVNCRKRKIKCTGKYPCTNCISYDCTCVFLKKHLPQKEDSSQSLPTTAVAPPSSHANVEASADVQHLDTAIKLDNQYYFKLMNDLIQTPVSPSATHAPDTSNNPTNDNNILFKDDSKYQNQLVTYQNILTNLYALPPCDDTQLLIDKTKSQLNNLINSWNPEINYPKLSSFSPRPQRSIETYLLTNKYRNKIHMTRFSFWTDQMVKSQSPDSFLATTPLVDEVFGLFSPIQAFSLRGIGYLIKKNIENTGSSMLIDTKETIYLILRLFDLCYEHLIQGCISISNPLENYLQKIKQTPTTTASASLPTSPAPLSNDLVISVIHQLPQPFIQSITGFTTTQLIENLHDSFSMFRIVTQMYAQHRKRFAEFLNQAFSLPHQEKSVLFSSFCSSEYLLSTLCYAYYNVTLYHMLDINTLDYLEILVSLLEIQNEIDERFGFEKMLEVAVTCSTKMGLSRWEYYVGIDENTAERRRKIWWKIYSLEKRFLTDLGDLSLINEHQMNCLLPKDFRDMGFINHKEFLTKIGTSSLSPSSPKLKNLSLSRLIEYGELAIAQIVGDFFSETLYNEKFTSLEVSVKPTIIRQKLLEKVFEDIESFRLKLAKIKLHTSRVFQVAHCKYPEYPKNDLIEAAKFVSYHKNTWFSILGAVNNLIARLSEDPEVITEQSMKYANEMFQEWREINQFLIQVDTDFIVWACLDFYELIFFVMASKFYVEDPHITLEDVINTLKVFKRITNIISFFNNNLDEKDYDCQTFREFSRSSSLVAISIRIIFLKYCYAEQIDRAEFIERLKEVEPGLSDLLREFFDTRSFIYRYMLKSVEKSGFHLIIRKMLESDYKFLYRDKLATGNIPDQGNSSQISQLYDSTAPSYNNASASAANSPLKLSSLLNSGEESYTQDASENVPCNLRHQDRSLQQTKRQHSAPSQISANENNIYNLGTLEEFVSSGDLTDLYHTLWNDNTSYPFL
The note with it: 200 nM.
Sequence “AACGGAAC (double strand) [8-mer AACGGAAC]” registered a binding signal (PBM E-score (-0.5 to 0.5)) of 0.49.
Consider “ACCCGCGG (double strand) [8-mer ACCCGCGG]”, for which the binding signal (PBM E-score (-0.5 to 0.5)) was 0.497.
For “ATCCGCGG (double strand) [8-mer ATCCGCGG]”, the binding signal (PBM E-score (-0.5 to 0.5)) was determined as 0.496.
For “CCCCGCGG (double strand) [8-mer CCCCGCGG]”, the binding signal (PBM E-score (-0.5 to 0.5)) is 0.492.
On the same count and under the same terms, the result for “CCCGCGGA (double strand) [8-mer CCCGCGGA]” reads 0.498.
The sequence “CCCGCGGG (double strand) [8-mer CCCGCGGG]” returned a binding signal (PBM E-score (-0.5 to 0.5)) of 0.498.
Still for that read-out and setting: the result for “CCGCGGAA (double strand) [8-mer CCGCGGAA]” reads 0.499.
On to “CCGCGGAC (double strand) [8-mer CCGCGGAC]”, for which the binding signal (PBM E-score (-0.5 to 0.5)) was 0.495.
Same read-out and setting: as for “CCGCGGAG (double strand) [8-mer CCGCGGAG]”, the figure is 0.498; as for “CCGCGGCA (double strand) [8-mer CCGCGGCA]”, 0.49; as for “CCGCGGGA (double strand) [8-mer CCGCGGGA]”, 0.499.
Same read-out and setting: the result for “CGCGGAAC (double strand) [8-mer CGCGGAAC]” reads 0.491.
Still for that read-out and setting: as for “GCCGCGGA (double strand) [8-mer GCCGCGGA]”, the figure is 0.495.

The values are drawn from article PMC3334620.
